Data published in US20230122364A1 (VANDERBILT UNIVERSITY, published 2023).

Columns and labels:
[1] = target: T1, prefusion conformation-stabilized SARS-CoV-2 spike ectodomain (S2Pecto) protein (SARS-CoV-2, UniProt P0DTC2 14-1213; P10104 458-484); test: ELISA, purified IgG
[2] = target: T1, prefusion conformation-stabilized …; test: ELISA on coated S2Pecto
[3] = target: T1, prefusion conformation-stabilized …; test: competition ELISA on coated S2Pecto; hACE2-FLAG binding inhibited

Binder	OD 450 nm [1]	EC50 [2]	IC50 [3]
COV2-2050 (antibody, V domains shown) VH: QVQLVQSGAEVKKPGASVKVSCKASGYTFTDYYMHWVRQAPGQGLEWMGWINPNSRGTNYAQKFQGRVTMTRDTSISTVYMELSRLTSDDTAVYYCARVVVLGYGRPNNYYDGRNVWDYWGQGTLVTVSS VL: not shown	4.3 OD 450 nm	0.0017 µg/mL	0.063 µg/mL
COV2-2068 (antibody, V domains shown) VH: EVQLVESGGGLVQPGGSLRLSCAASGFTVSSNYMSWVRQAPGKGLEWVSVIYPGGSAFYADSVKGRFTISRHNSNNTLCLQMNSLRTEDTAVYYCARSYDILTGYRDAFDIWGQGTMVTVSS VL: QSVLTQPPSVSGAPGQRVTISCTGSSSNIGSGSDVHWYQQLPGTAPKLLIYGNTNRPSGVPDRFSGSKSGTSASLAITGLQAEDEADYYCQSYDSRLSGFVVFGGGTKLTVL	4.3 OD 450 nm	0.0074 µg/mL	0.166 µg/mL
COV2-2103 (antibody, V domains shown) VH: EVQLVESGGGLVQPGGSLRLSCAASGFTFSRHWMTWVRQAPGKGLEWVANIKQDGSEKYYVDSVKGRLTISRDNAKNSLYLQMNSLRAEDTAVYYCARLGFYYGGADYWGQGTLVTVSS VL: NFMLTQPHSVSESPGKTVTISCTGSSGSIASNYVQWYQQRPGSAPTTVISEDNQRPSGVPDRFSGSIDSSSNSASLTISGLKTEDEADYYCQSYDGINRAWVFGGGTKLTVL	4.3 OD 450 nm	0.0029 µg/mL	0.079 µg/mL
COV2-2961 (antibody, V domains shown) VH: EVQLVQSGPEVKKPGTSVKVSCKASGFTFMSSAVQWVRQARGQRLEWIGWIVIGSGNTNYAQKFQERVTITRDMSTSTAYMELSSLRSEDTAVYYCAAPYCSSISCNDGFDIWGQGTMVTVSS VL: not shown	3.6 OD 450 nm		
COV2-2046 (antibody, V domains shown) VH: EVQLVESGGGLVQPGRSLRLSCAASGFTFDDYAMHWVRQAPGKGLEWVSGISWNSGSIAYTDSVKGRFTISRDNAKNSLYLQMNSLRAEDTALYYCAKAHSTGHQYYYGMDVWGQGTTVTVSS VL: DIQMTQSPSSLSASVGDRVTITCRASQSISSFLNWYQQKPGKAPKLLIYAAFNLQSGVPSRFSGSGSGTDFTLTISSLQSEDFATYYCQQSYNTPYTFGQGTKLEIK	4.3 OD 450 nm		
COV2-2113 (antibody, V domains shown) VH: EVQLVESGGGLIQPGGSLRLSCAASEVTVSSNYMSWVRQAPGKGLEWVSLIYSGGTTYYADSVKGRFTISRDNSKNTLYLQMNSLRAEDTAVYYCARDFLRWHDLWGQGTLVTVSS VL: DIQMTQSPSSLSASVGDRVTITCQASQDINNYLNWYQQKPGKAPKLLIYDASNLETGVPLRFSGSGSGTDFIFTISSLQPEDIATYYCQQYDNLPPVFGGGTKVEIK	4.4 OD 450 nm	0.0018 µg/mL	0.06 µg/mL
COV2-2132 (antibody, V domains shown) VH: EVQLVESGGGLIQPGGSLRLSCAASEVTVSSNYMSWVRQAPGKGLEWVSLIYSGGTTYYADSVKGRFTISRDNSKNTLYLQMNSLRAEDTAVYYCARDFLRWHDLWGQGTLVTVSS VL: DIQMTQSPSSLSASVGDRVTITCQASQDINNYLNWYQQKPGKAPKLLIYDASNLETGVPLRFSGSGSGTDFTFTISSLQPEDIATYYCQQYDNLPPVFGGGTKVEIK	4.4 OD 450 nm		
COV2-2082 (antibody, V domains shown) VH: EVQLVESGGGVVRPGGSLRLSCAASGFIFDDYDMTWVRQAPGKGLEWVSGISWNGGNTGYADSVKGRFTISRDNAKNSLYLQMNSLRAEDTALYHCAVIMSPIPRYSGYDWAGGAFDIWGQGTMVTVSS VL: SSELTQDPAVSVALGQTVRITCQGDSLRSYYASWYQQKPGQVPILVIYDKNNRPSGIPDRFSGSSSGNTASLTITGAQAEDEADYYCNSRDSSGNAVVFGGGTKLTVL	4.3 OD 450 nm	0.0011 µg/mL	0.043 µg/mL
COV2-2098 (antibody, V domains shown) VH: EVQLLESGGGLIQPGGSLRLSCAASGFTFSNYAMSWVRQAPGKGLEWVSGIISTSGGATYNADSVRGRFTTSRDNSKNILYLQMNSLRGEDTAVYYCVKGLFDWFPLWGQGTMVTVSS VL: DIVMTQSPATLSVSPGERAILSCRASQSVRSNLAWYQQKPGQAPRLLISGASTRATAIPARFSGSGSGTEFTLTITSLQSEDCAVYYCHQYNNWPQTFGQGTKVEIK	4.3 OD 450 nm	0.0013 µg/mL	0.048 µg/mL
